Experimental data reported in doi:10.1101/2022.05.18.492403.

Target: recombinant C-terminal StrepII-tagged SbtB from Synechocystis sp. PCC 6803 (ScSbtB), wildtype (Synechocystis sp. PCC 6803), P73954
Assay: crystal structure
Conditions: remark: other sources report otherwise

- stoichiometry N: 3
B1: recombinant C-terminal StrepII-tagged SbtB from Synechocystis sp. PCC 6803 (ScSbtB), wildtype, P73954 1-110 (natural protein)
chain: MAKPANKLVIVTEKILLKKIAKIIDESGAKGYTVMNTGGKGSRNVRSSGQPNTSDIEANIKFEILTETREMAEEIADRVAVKYFNDYAGIIYICSAEVLYGHTFCGPEGC
